Measurements published in article PMC9371924, “Exploration of DNA processing features unravels novel properties of ICE conjugation in Gram-positive bacteria”.

Columns and labels:
[1] = target: T1, RelSt3 (MOBT relaxase) (Streptococcus thermophilus (ICESt3)) (UniProt Q935T7); assay: EMSA; conditions: PAGE EMSA: 20 mM Tris-HCl (pH not stated), 500 mM NaCl, 100 ug/ml salmon sperm DNA, 0.11 uM DNA, 15 min 37 C, gel run at 4 C; agarose EMSA: 400 ng DNA in …
T1 sequence: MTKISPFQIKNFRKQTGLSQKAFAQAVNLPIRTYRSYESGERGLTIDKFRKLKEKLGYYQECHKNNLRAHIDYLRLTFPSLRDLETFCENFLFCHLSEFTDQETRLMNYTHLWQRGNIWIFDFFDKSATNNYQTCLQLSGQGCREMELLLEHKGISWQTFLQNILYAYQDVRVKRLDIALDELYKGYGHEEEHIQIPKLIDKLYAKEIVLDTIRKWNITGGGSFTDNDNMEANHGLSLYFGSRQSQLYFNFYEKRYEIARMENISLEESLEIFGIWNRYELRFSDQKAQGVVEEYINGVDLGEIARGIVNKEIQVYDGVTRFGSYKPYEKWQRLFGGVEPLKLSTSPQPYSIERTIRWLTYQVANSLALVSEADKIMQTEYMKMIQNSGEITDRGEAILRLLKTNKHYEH

[2] = target: T2, RelSt3 (MOBT relaxase) (Streptococcus thermophilus (ICESt3)) (UniProt Q935T7); assay: EMSA; conditions: PAGE EMSA: 20 mM Tris-HCl (pH not stated), 500 mM NaCl, 100 ug/ml salmon sperm DNA, 0.11 uM DNA, 15 min 37 C, gel run at 4 C; agarose EMSA: 400 ng DNA in …; remark: listed apart in the source
T2 sequence: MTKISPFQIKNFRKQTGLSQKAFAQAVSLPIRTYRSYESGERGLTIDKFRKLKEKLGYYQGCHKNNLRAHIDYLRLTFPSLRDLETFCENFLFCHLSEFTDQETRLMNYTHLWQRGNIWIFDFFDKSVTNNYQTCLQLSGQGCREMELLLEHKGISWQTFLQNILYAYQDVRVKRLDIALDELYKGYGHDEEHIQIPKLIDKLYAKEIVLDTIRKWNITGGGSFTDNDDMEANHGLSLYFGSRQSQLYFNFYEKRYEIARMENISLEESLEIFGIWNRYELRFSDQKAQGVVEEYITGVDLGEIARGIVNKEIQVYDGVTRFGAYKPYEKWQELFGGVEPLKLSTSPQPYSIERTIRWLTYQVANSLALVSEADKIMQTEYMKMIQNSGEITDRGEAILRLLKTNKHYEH

RelSt3 (MOBT relaxase) [3] = target: T3, RelSt3 (MOBT relaxase) (Streptococcus thermophilus (ICESt3), UniProt Q935T7 1-410); assay: EMSA; up to 6.4 uM; PAGE EMSA: 20 mM Tris-HCl (pH not stated), 500 mM NaCl, 100 ug/ml salmon sperm DNA, 0.11 uM DNA, 15 min 37 C, gel run at 4 C; agarose EMSA: 400 ng DNA in 20 ul, 15 min 37 C; conditions: protein: recombinant; tags: N-terminal 6xHis-TEV (pSKB3); label: 5' 6-FAM; blunt
T3 sequence: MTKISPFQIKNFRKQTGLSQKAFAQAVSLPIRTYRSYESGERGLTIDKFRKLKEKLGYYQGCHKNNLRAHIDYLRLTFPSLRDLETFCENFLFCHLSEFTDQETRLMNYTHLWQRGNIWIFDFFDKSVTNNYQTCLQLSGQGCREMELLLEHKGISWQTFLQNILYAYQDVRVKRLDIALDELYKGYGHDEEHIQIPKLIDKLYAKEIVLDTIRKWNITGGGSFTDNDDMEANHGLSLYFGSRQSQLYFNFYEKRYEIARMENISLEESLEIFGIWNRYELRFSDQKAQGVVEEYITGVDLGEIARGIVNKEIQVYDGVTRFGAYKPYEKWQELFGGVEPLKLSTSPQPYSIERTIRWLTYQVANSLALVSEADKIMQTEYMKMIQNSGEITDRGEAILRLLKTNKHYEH

RelSt3 (MOBT relaxase) [4] = target: T3, RelSt3 (MOBT relaxase); assay: EMSA; PAGE EMSA: 20 mM Tris-HCl (pH not stated), 500 mM NaCl, 100 ug/ml salmon sperm DNA, 0.11 uM DNA, 15 min 37 C, gel run at 4 C; agarose EMSA: 400 ng DNA in 20 ul, 15 min 37 C; conditions: protein: recombinant, tags: N-terminal 6xHis-TEV (pSKB3), label: 5' 6-FAM, blunt
RelSt3 (MOBT relaxase) [5] = target: T3, RelSt3 (MOBT relaxase); assay: EMSA; apparent Kd; PAGE EMSA: 20 mM Tris-HCl (pH not stated), 500 mM NaCl, 100 ug/ml salmon sperm DNA, 0.11 uM DNA, 15 min 37 C, gel run at 4 C; agarose EMSA: 400 ng DNA in 20 ul, 15 min 37 C; conditions: protein: recombinant; tags: N-terminal 6xHis-TEV (pSKB3); label: 5' 6-FAM; blunt; possible cruciform
RelSt3 R32A-R35A = target: T4, RelSt3 R32A-R35A (Streptococcus thermophilus (ICESt3), UniProt Q935T7 1-410, R32A;R35A); assay: EMSA; up to 6.4 uM; PAGE EMSA: 20 mM Tris-HCl (pH not stated), 500 mM NaCl, 100 ug/ml salmon sperm DNA, 0.11 uM DNA, 15 min 37 C, gel run at 4 C; agarose EMSA: 400 ng DNA in 20 ul, 15 min 37 C; conditions: protein: recombinant; tags: N-terminal 6xHis-TEV (pSKB3); label: 5' 6-FAM; blunt; possible cruciform
T4 sequence: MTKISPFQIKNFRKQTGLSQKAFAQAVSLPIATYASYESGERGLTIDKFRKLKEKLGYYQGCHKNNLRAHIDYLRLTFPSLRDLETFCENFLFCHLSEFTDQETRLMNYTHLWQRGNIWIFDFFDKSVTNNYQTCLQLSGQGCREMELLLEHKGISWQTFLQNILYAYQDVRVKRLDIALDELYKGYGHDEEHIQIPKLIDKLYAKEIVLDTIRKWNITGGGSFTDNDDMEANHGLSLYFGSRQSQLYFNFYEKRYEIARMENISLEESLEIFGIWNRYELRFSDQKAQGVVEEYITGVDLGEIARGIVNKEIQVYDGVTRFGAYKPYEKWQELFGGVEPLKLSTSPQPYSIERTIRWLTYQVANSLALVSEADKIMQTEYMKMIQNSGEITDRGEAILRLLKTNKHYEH

[6] = target: T5, RelSt3(64-410), HTH deleted (Streptococcus thermophilus (ICESt3), UniProt Q935T7 64-410); assay: EMSA; up to 1.75 uM; PAGE EMSA: 20 mM Tris-HCl (pH not stated), 500 mM NaCl, 100 ug/ml salmon sperm DNA, 0.11 uM DNA, 15 min 37 C, gel run at 4 C; agarose EMSA: 400 ng DNA in 20 ul, 15 min 37 C; conditions: protein: recombinant; tags: N-terminal 6xHis-TEV (pSKB3); label: 5' 6-FAM; blunt; possible cruciform
T5 sequence: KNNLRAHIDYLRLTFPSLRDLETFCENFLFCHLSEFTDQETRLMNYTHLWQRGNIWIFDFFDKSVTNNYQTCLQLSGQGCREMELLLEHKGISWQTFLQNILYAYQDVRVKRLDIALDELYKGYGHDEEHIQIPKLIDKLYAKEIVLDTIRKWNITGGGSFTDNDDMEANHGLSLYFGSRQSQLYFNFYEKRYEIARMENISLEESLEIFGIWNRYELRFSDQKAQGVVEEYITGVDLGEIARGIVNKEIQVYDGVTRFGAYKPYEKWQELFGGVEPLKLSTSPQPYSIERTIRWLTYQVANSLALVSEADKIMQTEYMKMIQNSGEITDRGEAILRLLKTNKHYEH

RelSt3 (MOBT relaxase) [7] = target: T3, RelSt3 (MOBT relaxase); assay: EMSA; data not shown; PAGE EMSA: 20 mM Tris-HCl (pH not stated), 500 mM NaCl, 100 ug/ml salmon sperm DNA, 0.11 uM DNA, 15 min 37 C, gel run at 4 C; agarose EMSA: 400 ng DNA in 20 ul, 15 min 37 C; conditions: protein: recombinant; tags: N-terminal 6xHis-TEV (pSKB3); label: 5' 6-FAM; blunt

Molecule: AAAAAGAATTCTGTTCATCATGGGCTAGGACAAGGGCAAGGACAAGCCTGACCACAGGTCAGGCGCAGACCGTAGCCCGAAGTTCCTAGGCCATGATGAGACTTCAACCCCCGATTTCTAATAGGGGGGTTACATTTGGCCAAAGTGCCACGTCCACCCCTCCTCATTCCTTGTGGGAGTTGGGATTTCAAGATTTAGAAAGTGTGTCACTTTGGTCCAAAAAGTGTGTCACTTAGTCAAAAGGAGGTGTTCCCATGAATGACTAAAATAAGTCCCTTTCAGATCAAGGGCCCTTTTT (double strand) [oriT1 PCR product]
- binding [1]: binds

Molecule: GAGACTTCAACCCCCGATTTCTAATAGGGGGGTTACATTTTCAAGATTTAGAAAGTGTGTCACTTTGGTCCAAAAAGTGTGTCACTTAGTCAAAAGGAG / CTCCTTTTGACTAAGTGACACACTTTTTGGACCAAAGTGACACACTTTCTAAATCTTGA [ori50 (ss nic region + ds IR2)]
- Kd [2]: 3200 nM

B1: ori46 (IR1, nic site) (dsDNA)
DNA 1: GAGACTTCAACCCCCGATTTCTAATAGGGGGGTTACAT
DNA 2: ATGTAACCCCCCTATTAGAAATCGGGGGTTGAAGTCTC
- binding result (RelSt3 (MOBT relaxase) [3]): no binding

B2: non-specific dsDNA (dsDNA)
DNA 1: CTTACCGATAAGAACTTACCGCTCCTATGAATCTGGGGAAAGAGGTCTGACCATTGACAAGTTTCGAAAACTCAAAGAAAAGC
DNA 2: GCTTTTCTTTGAGTTTTCGAAACTTGTCAATGGTCAGACCTCTTTCCCCAGATTCATAGGAGCGGTAAGTTCTTATCGGTAAG
- binding result (RelSt3 (MOBT relaxase) [3]): no binding

B3: ori41M5 (IR2a mutated) (dsDNA)
DNA 1: TCAAGATTTAGACGATACGCTGACGTGGTCCAAAAAGTGTGTCACTTAGTCAAAAGGAG
DNA 2: CTCCTTTTGACTAAGTGACACACTTTTTGGACCACGTCAGCGTATCGTCTAAATCTTGA
- binding result (RelSt3 (MOBT relaxase) [4]): no binding

B4: ori41 (ori41WT) dsDNA, full IR2 (dsDNA)
DNA 1: TCAAGATTTAGAAAGTGTGTCACTTTGGTCCAAAAAGTGTGTCACTTAGTCAAAAGGAG
DNA 2: CTCCTTTTGACTAAGTGACACACTTTTTGGACCAAAGTGACACACTTTCTAAATCTTGA
- Kd (RelSt3 (MOBT relaxase) [5]): ~1600 nM
- binding result (RelSt3 R32A-R35A): no binding
- binding result [6]: no binding

B5: ori41M6 (IR2b mutated) (dsDNA)
DNA 1: TCAAGATTTAGAAAGTGTGTCACTTTGGTCCAAACGATACGCTGACGAGTCAAAAGGAG
DNA 2: CTCCTTTTGACTCGTCAGCGTATCGTTTGGACCAAAGTGACACACTTTCTAAATCTTGA
- binding result (RelSt3 (MOBT relaxase) [4]): no binding

B6: ori41M11 (IR2 replaced by IR of same length and GC%) (dsDNA)
DNA 1: TCAAGATTTAGACGATACGCTATCGTGGTCCAAACGATACGCTATCGAGTCAAAAGGAG
DNA 2: CTCCTTTTGACTCGATAGCGTATCGTTTGGACCACGATAGCGTATCGTCTAAATCTTGA
- binding result (RelSt3 (MOBT relaxase) [4]; possible hairpin): no binding

B7: ori47 (IR1-IR2 spacer) (dsDNA)
DNA 1: ACATTTGGCCAAAGTGCCACGTCCACCCCTCCTCATTCCTTGTGGGAGTTGGGATTTCAAGATTTAGA
DNA 2: TCTAAATCTTGAAATCCCAACTCCCACAAGGAATGAGGAGGGGTGGACGTGGCACTTTGGCCAAATGT
- binding result (RelSt3 (MOBT relaxase) [7]): no binding
